Consider 1 molecule from US20230235070A1 (Pfizer, published 2023).

The test deals with T1, TNF-like ligand 1A (TL1A) (human, UniProt O95150 72-251).
T1 construct: Endogenous protein measured in patients' serum and biopsies by immunoprecipitation LC-MS/MS; also called TNFSF15; soluble TL1A
T1 sequence (looked up): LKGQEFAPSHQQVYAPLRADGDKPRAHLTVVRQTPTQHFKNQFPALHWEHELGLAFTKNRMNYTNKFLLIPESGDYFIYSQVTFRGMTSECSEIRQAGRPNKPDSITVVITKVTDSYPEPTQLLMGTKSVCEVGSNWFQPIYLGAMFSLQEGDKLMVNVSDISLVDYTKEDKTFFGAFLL
Nature of the test: total soluble TL1A in serum of treated participants, immunoprecipitation LC-MS/MS (in vivo target engagement). The protocol:
An Immunoprecipitation LC-MS/MS assay has been developed and validated to measure total soluble TL1A in human serum. Total soluble TL1A is isolated from human serum using immuno-enrichment technology. The samples are incubated and shaken with a biotinylated anti-TL1A capture reagent at 4° C. overnight. Dynabeads MyOne C1 streptavidin-coupled magnetic beads are then added to each sample and incubated at room temperature for 1 h to extract TL1A bound to biotinylated capture antibody. The beads are then washed three times, followed by elution of total TL1A from the beads under acidic conditions. After addition of the extended sequence stable isotope labeled peptide (internal standard) to each sample, trypsin digestion is performed at 37° C. overnight. All sample processing is performed in a 96-well format on an automated liquid handling robot (Microlab STAR, Hamilton, Bonaduz, Switzerland). A 120 μL of the sample extract is injected onto a three-dimensional Dionex Ultimate 3000 nano-LC system, comprising a conventional flow immunoaffinity capture with custom 2.1 mm ID anti-peptide antibody column, and elution to 300 μm ID C18 trap column and 75 μm ID nano LC analytical column. […] One selected reaction monitoring transition for the signature peptide is used to quantify TL1A in the positive ion mode, and all data are normalized to the internal standard response. […]

B1: PF-06480605 (antibody, human IgG1, kappa, V domains shown)
VH: QVQLVQSGAEVKKPGASVKVSCKASGYDFTYYGISWVRQAPGQGLEWMGWISTYNGNTHYARMLQGRVTMTTDTSTRTAYMELRSLRSDDTAVYYCARENYYGSGAYRGGMDVWGQGTTVTVSS
VL: EIVLTQSPATLSLSPGERATLSCRASQSVSSYLAWYQQKPGQAPRLLIYDASNRATGIPARFSGSGSGTDFTLTISSLEPEDFAVYYCQQRSNWPWTFGQGTKVEIKR
notes: The embodiments and claims number differently (1 = VH, 2 = VL, 9 = HC, 10 = LC); also called anti-TL1A
On to B1, for which the binding result is reported as “binds”.
